Substitutions are numbered along the chain they refer to.
B1: CD71-binding FN3 domain SEQ ID NO 380 (designed binder)
chain: MLPAPKNLVVSRVTEDSARLSWTAPDAAFDSFFIGYLEPQPPGEAIGLFVPGSERSYDLTGLKPGTEYNVTIQGVKGGFPSMPLSAIFTT
B2: CD71-binding FN3 domain SEQ ID NO 389 (designed binder)
chain: B1 chain with G47H, F49L, F88V
B3: CD71-binding FN3 domain SEQ ID NO 365 (designed binder)
chain: B1 chain with G47V, F49W, M82H, S85V, I87K
B4: CD71-binding FN3 domain SEQ ID NO 392 (designed binder)
chain: B1 chain with G47H, F49G, M82L, S85V, I87T
B5: CD71-binding FN3 domain SEQ ID NO 369 (designed binder)
chain: B1 chain with G47V, F49W, M82H, S85V, I87K, F88S
B6: CD71-binding FN3 domain SEQ ID NO 356 (designed binder)
chain: B1 chain with V13I, G47T, F49L, G52A, M82H, S85Q, I87Q
B7: CD71-binding FN3 domain SEQ ID NO 363 (designed binder)
chain: B1 chain with G47D, F49W, M82L
B8: CD71-binding FN3 domain SEQ ID NO 375 (designed binder)
chain: B1 chain with G47D, F49T
B9: CD71-binding FN3 domain SEQ ID NO 349 (designed binder)
chain: B1 chain with G47E, F49Y, M82E, S85I, I87H
B10: CD71-binding FN3 domain SEQ ID NO 393 (designed binder)
chain: B1 chain with M82L, S85Q, I87H
B11: CD71-binding FN3 domain SEQ ID NO 391 (designed binder)
chain: B1 chain with V9I, G47S, F49Y, M82D, S85Q
B12: CD71-binding FN3 domain SEQ ID NO 360 (designed binder)
chain: B1 chain with G47S, F49Y, M82H, S85L, I87V
B13: CD71-binding FN3 domain SEQ ID NO 378 (designed binder)
chain: B1 chain with G47D, F49W, M82T, S85I, I87T, F88V
B14: CD71-binding FN3 domain SEQ ID NO 361 (designed binder)
chain: B1 chain with G47Q, M82I, I87L
B15: CD71-binding FN3 domain SEQ ID NO 354 (designed binder)
chain: B1 chain with G47Q, F49W, M82L, S85V, I87T
B16: CD71-binding FN3 domain SEQ ID NO 385 (designed binder)
chain: B1 chain with G47D, F49Y, M82H, S85Q, I87H
B17: CD71-binding FN3 domain SEQ ID NO 377 (designed binder)
chain: B1 chain with G47Q, F49W, M82T, S85Q, I87L
B18: CD71-binding FN3 domain SEQ ID NO 376 (designed binder)
chain: B1 chain with G47A, F49L, M82N, S85E, I87K
B19: CD71-binding FN3 domain SEQ ID NO 373 (designed binder)
chain: B1 chain with G47S, M82D, S85V, I87S
B20: CD71-binding FN3 domain SEQ ID NO 372 (designed binder)
chain: B1 chain with G47N, F49L, M82L, S85L, I87E
B21: CD71-binding FN3 domain SEQ ID NO 351 (designed binder)
chain: B1 chain with G47T, F49A, M82N, S85L, I87A
B22: CD71-binding FN3 domain SEQ ID NO 364 (designed binder)
chain: B1 chain with K6N, G47H, M82G, S85H, I87T
B23: CD71-binding FN3 domain SEQ ID NO 353 (designed binder)
chain: B1 chain with M82N, S85E, I87R
B24: CD71-binding FN3 domain SEQ ID NO 346 (designed binder)
chain: B1 chain with G47S, M82D, S85N, I87T, T89N
B25: CD71-binding FN3 domain SEQ ID NO 366 (designed binder)
chain: B1 chain with G47D, F49W, M82N, S85K, I87Q
B26: CD71-binding FN3 domain SEQ ID NO 368 (designed binder)
chain: B1 chain with G47T, F49T, M82G, S85I, I87S
B27: CD71-binding FN3 domain SEQ ID NO 350 (designed binder)
chain: B1 chain with G47S, S85V, I87Q
B28: CD71-binding FN3 domain SEQ ID NO 383 (designed binder)
chain: B1 chain with G47D, F49W, M82L, S85D, I87V
B29: CD71-binding FN3 domain SEQ ID NO 355 (designed binder)
chain: B1 chain with G47H, F49Y, M82H, S85Y, I87D
B30: CD71-binding FN3 domain SEQ ID NO 387 (designed binder)
chain: B1 chain with G47H, F49V, M82D, S85Y, I87W
B31: CD71-binding FN3 domain SEQ ID NO 347 (designed binder)
chain: B1 chain with M82E, S85K, I87A
B32: CD71-binding FN3 domain SEQ ID NO 382 (designed binder)
chain: B1 chain with G47E, F49Y, M82D, S85E, I87D
B33: CD71-binding FN3 domain SEQ ID NO 357 (designed binder)
chain: B1 chain with M82D, S85V, I87Y

Legend:
[1] = target: T1, human CD71 extracellular domain (human, UniProt P02786 89-760); test: primary ELISA; also: test concentration or dose not given here
T1 construct: also called hCD71; CD71-ECD

[2] = target: T2, human apical domain of CD71 (human, UniProt P02786 189-383, limits assumed); test: primary ELISA; also: test concentration or dose not given here
T2 construct: domain: apical domain

[3] = target: T1, human CD71 extracellular domain; test: primary ELISA; signal over HSA control; as to RLU: test concentration or dose not given here
[4] = target: T2, human apical domain of CD71; test: primary ELISA; signal over HSA control; as to RLU: test concentration or dose not given here

T2 sequence (P02786 189-383 limits assumed): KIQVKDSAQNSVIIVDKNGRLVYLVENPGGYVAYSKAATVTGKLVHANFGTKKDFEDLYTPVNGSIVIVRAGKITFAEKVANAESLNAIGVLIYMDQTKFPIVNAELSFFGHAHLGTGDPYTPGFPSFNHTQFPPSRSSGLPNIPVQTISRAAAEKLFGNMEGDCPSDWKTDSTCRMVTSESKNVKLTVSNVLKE
T1 sequence (P02786 89-760): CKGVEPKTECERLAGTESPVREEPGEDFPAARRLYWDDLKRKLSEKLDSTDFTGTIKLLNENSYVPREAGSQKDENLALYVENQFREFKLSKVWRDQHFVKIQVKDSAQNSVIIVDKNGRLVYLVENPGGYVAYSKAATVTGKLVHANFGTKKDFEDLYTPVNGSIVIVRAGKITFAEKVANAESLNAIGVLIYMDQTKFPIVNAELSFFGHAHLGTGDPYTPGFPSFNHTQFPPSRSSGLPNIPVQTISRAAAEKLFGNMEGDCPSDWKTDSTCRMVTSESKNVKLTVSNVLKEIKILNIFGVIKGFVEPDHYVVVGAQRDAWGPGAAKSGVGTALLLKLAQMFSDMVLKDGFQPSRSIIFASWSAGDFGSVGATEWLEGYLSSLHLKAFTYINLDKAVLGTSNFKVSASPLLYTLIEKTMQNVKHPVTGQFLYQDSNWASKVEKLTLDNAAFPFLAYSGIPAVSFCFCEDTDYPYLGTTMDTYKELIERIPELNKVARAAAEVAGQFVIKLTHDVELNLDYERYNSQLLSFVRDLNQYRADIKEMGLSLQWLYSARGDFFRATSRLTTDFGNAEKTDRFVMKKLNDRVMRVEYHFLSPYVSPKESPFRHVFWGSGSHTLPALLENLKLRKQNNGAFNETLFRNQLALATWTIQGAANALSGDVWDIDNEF

Binder	RLU [1] [RLU]	RLU [2] [RLU]	hCD71:HSA [3] [ratio]	Apical domain:HSA [4] [ratio]
B1	5.32e+06	6.5e+06	21	25
B2	5.82e+06	6.19e+06	121	129
B3	6.85e+06	6.7e+06	67	65
B4	4.77e+06	3.9e+06	237	194
B5	3.82e+06	3.66e+06	172	165
B6	3.92e+06	6.37e+06	207	337
B7	4.18e+06	4.91e+06	273	320
B8	2.82e+06	2.09e+06	187	139
B9	6.37e+06	6.87e+06	22	23
B10	4.39e+06	6.09e+06	42	58
B11	2.78e+06	4.19e+06	108	163
B12	5.78e+06	5.37e+06	155	144
B13	6.12e+06	6.12e+06	76	76
B14	3.08e+06	5.01e+06	210	342
B15	5.75e+06	5.25e+06	155	142
B16	5.74e+06	5.91e+06	142	146
B17	1.57e+06	3.43e+06	125	274

Binder	RLU [1] [RLU]	RLU [2] [RLU]	hCD71:HSA [3] [ratio]	Apical domain:HSA [4] [ratio]
B18	5.96e+06	6.47e+06	153	167
B19	4.86e+06	5.73e+06	98	115
B20	2.8e+06	4.63e+06	124	205
B21	2.67e+06	2.87e+06	322	345
B22	5.83e+06	6.5e+06	60	67
B23	4.54e+06	6.87e+06	53	80
B24	5e+06	6.82e+06	61	83
B25	2.29e+06	3.37e+06	213	313
B26	5.53e+06	6.23e+06	218	246
B27	5.96e+06	6.7e+06	127	143
B28	1.85e+06	4.33e+06	94	220
B29	3.58e+06	5.91e+06	257	424
B30	1.79e+06	3.88e+06	203	441
B31	4.1e+06	5.95e+06	116	168
B32	2.01e+06	2.55e+06	160	203
B33	5.62e+06	6.34e+06	16	18

— patent publication US20260151494A1 (ARO BIOTHERAPEUTICS, published 2026)
